# Test results published in IntAct's records for PubMed 24366543.
# B1: Nuclear factor erythroid 2-related factor 2 (Mus musculus), Q60795 (parent)
# chain: MMDLELPPPGLQSQQDMDLIDILWRQDIDLGVSREVFDFSQRQKDYELEKQKKLEKERQEQLQKEQEKAFFAQFQLDEETGEFLPIQPAQHIQTDTSGSASYSQVAHIPKQDALYFEDCMQLLAETFPFVDDHESLALDIPSHAESSVFTAPHQAQSLNSSLEAAMTDLSSIEQDMEQVWQELFSIPELQCLNTENKQLADTTAVPSPEATLTEMDSNYHFYSSISSLEKEVGNCGPHFLHGFEDSFSSILSTDDASQLTSLDSNPTLNTDFGDEFYSAFIAEPSDGGSMPSSAAISQSLSELLDGTIEGCDLSLCKAFNPKHAEGTMEFNDSDSGISLNTSPSRASPEHSVESSIYGDPPPGFSDSEMEELDSAPGSVKQNGPKAQPAHSPGDTVQPLSPAQGHSAPMRESQCENTTKKEVPVSPGHQKAPFTKDKHSSRLEAHLTRDELRAKALHIPFPVEKIINLPVDDFNEMMSKEQFNEAQLALIRDIRRRGKNKVAAQNCRKRKLENIVELEQDLGHLKDEREKLLREKGENDRNLHLLKRRLSTLYLEVFSMLRDEDGKPYSPSEYSLQQTRDGNVFLVPKSKKPDTKKN
# Variants of: B1
# Conditions: with keap1_mouse Keap1, Q9Z2X8
# Sequence of keap1_mouse Keap1, Q9Z2X8 (Q9Z2X8 whole entry): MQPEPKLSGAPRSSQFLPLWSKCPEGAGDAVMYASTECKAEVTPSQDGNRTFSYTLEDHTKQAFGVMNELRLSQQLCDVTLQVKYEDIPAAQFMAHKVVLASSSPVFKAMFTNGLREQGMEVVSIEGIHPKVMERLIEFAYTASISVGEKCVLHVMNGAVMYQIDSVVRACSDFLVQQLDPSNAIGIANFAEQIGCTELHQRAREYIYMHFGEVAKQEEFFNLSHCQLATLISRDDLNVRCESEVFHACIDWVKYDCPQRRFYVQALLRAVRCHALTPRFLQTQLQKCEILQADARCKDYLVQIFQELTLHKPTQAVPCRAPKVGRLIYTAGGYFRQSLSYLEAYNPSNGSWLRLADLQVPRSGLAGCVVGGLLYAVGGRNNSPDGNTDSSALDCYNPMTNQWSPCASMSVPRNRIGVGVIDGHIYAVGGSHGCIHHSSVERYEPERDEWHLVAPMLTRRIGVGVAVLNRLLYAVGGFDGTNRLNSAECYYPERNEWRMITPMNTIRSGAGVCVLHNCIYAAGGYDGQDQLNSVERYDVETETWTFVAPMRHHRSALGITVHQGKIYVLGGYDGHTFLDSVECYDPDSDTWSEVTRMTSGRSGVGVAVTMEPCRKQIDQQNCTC
row,effect of a mutation on the interaction,Variant
1,disrupting interaction,L30F

# Variants of: B1
# Conditions: with keap1_mouse Keap1, Q9Z2X8
# Remark: another data set of the same source
row,effect of a mutation on the interaction,Variant
1,disrupting interaction,D27Y

# Variants of: B1
# Conditions: with keap1_mouse Keap1, Q9Z2X8
# Remark: another data set of the same source
row,effect of a mutation on the interaction,Variant
1,disrupting interaction,V32G

# Variants of: B1
# Conditions: with keap1_mouse Keap1, Q9Z2X8
# Remark: another data set of the same source
row,effect of a mutation on the interaction,Variant
1,disrupting interaction,I28T

# Variants of: B1
# Conditions: with keap1_mouse Keap1, Q9Z2X8
# Remark: another data set of the same source
row,effect of a mutation on the interaction,Variant
1,disrupting interaction,G31A

# Variants of: B1
# Conditions: with keap1_mouse Keap1, Q9Z2X8
# Remark: another data set of the same source
row,effect of a mutation on the interaction,Variant
1,disrupting interaction,Q26E

# Variants of: B1
# Conditions: with keap1_mouse Keap1, Q9Z2X8
# Remark: another data set of the same source
row,effect of a mutation on the interaction,Variant
1,disrupting interaction,L23R

# Variants of: B1
# Conditions: with keap1_mouse Keap1, Q9Z2X8
# Remark: another data set of the same source
row,effect of a mutation on the interaction,Variant
1,increasing interaction,Q43R

# Variants of: B1
# Conditions: with keap1_mouse Keap1, Q9Z2X8
# Remark: another data set of the same source
row,effect of a mutation on the interaction,Variant
1,disrupting interaction,R34Q

# Variants of: B1
# Conditions: with keap1_mouse Keap1, Q9Z2X8
# Remark: another data set of the same source
row,effect of a mutation on the interaction,Variant
1,increasing interaction,S33R

# Variants of: B1
# Conditions: with keap1_mouse Keap1, Q9Z2X8
# Remark: another data set of the same source
row,effect of a mutation on the interaction,Variant
1,disrupting interaction,D29H

# Variants of: B1
# Conditions: with keap1_mouse Keap1, Q9Z2X8
# Remark: another data set of the same source
row,effect of a mutation on the interaction,Variant
1,disrupting interaction,D29G

# Variants of: B1
# Conditions: with keap1_mouse Keap1, Q9Z2X8
# Remark: another data set of the same source
row,effect of a mutation on the interaction,Variant
1,disrupting interaction,W24R

# Variants of: B1
# Conditions: with keap1_mouse Keap1, Q9Z2X8
# Remark: another data set of the same source
row,effect of a mutation on the interaction,Variant
1,disrupting interaction,W24C
